Results as given in patent US6713443B1, “Compounds which modify serotoninergic transmission, diagnostic and therapeutic applications” (Institut Pasteur, priority 1993, dated 2004).
Each block holds one molecule with its values, some of them ahead of it. No end group written: not given here.

Legend:
[1] = system: 5-HT1B/D receptors; assay: Relative activity at 1 nM, [3H]5-HT binding; details: 1 nM peptide or amino acid, 30 nM [3H]5-HT
Experimental: (§1) The binding experiments were performed as described above. […] Each value corresponds to the mean ± the standard deviation of three independent tests performed in quintuplicate.

[2] = system: 5-HT1B/D receptors; assay: Relative activity at 1 nM, [125I]cyanopindolol binding; details: 1 nM peptide or amino acid, 0.3 nM [125I]cyanopindolol
Experimental: as §1

[3] = system: mouse; assay: Forced swimming test (Porsolt); format: in vivo; details: reference antidepressants
Text: The forced swimming test (Porsolt) is a simple test which cannot, under any circumstances, be assimilated with a model of “depression”.

[4] = molecular target: 5-HT1B/1D receptors; assay: inhibition of 30 nM [3H]5-HT binding, 1 nM peptide
[5] = molecular target: 5-HT1B/1D receptors; assay: inhibition of [3H]5-HT or [125I]cyanopindolol binding to 5-HT1B/1D type receptors
[6] = molecular target: T1, 5-HT1B receptor of rat brain (rat, UniProt P28564 1-386); assay: inhibition of 0.3 nM [125I]cyanopindolol binding, 1 nM peptide
T1 construct: whole, on cells

[7] = system: 5-HT1B/1D type receptors; assay: Binding of [3H]5-HT or [125I]cyanopindolol to 5-HT1B/1D type receptors (short peptides)
[8] = system: 5-HT receptor; assay: Ligand activity of modified LSAL peptides on the 5-HT receptor; format: binding
[9] = molecular target: 5-HT1 receptors; assay: inhibition of [3H]5-HT binding to 5-HT1 receptors
[10] = molecular target: muscarinic receptors of rat brain; assay: radioligand binding, rat brain membranes, [3H]quinuclidinyl benzilate (3 nM), 1 nM peptide
[11] = molecular target: D2 dopaminergic receptor of rat brain (rat) (UniProt P61169); assay: radioligand binding, rat brain membranes, [3H]epiperone (2 nM) + 10 µM 5-HT, 1 nM peptide
[12] = molecular target: 5-HT2A receptor of rat brain (rat) (UniProt P14842); assay: radioligand binding, rat brain membranes, [3H]DOB (5 nM), 1 nM peptide
[13] = molecular target: opiate receptors of rat brain; assay: radioligand binding, rat brain membranes, [3H]naloxone (2 nM), 1 nM peptide
[14] = molecular target: benzodiazepine receptors of rat brain; assay: radioligand binding, rat brain membranes, [3H]flunitrazepam (3 nM), 1 nM peptide
[15] = molecular target: 5-HT1B/1D receptors; assay: inhibition of [3H]5-HT binding to 5-HT1nonA sites
[16] = molecular target: T1, 5-HT1B receptor of rat brain; assay: inhibition of [125I]cyanopindolol binding, rat cerebral tissue homogenates
[17] = molecular target: β adrenergic receptors of rat brain; assay: radioligand binding, rat brain membranes, [3H]dihydroalprenolol (3 nM) + 5-HT, 1 nM peptide
[18] = molecular target: 5-HT1 receptors; assay: inhibition of [3H]5-HT binding to 5-HT1 receptors, 10^-9 M peptide
[19] = molecular target: T2, 5-HT1D receptors of human brain (human, UniProt P28221 1-377); assay: inhibition of [3H]5-HT binding to 5-HT1D receptors, human brain
T2 construct: whole, on cells; Native tissue; preparation not described

[20] = molecular target: H1 histaminergic receptor of rat brain (rat) (UniProt P31390); assay: radioligand binding, rat brain membranes, [3H]mepyramine (5 nM), 1 nM peptide
[21] = molecular target: 5-HT1B/1D receptors; assay: cell-based or functional assay
[22] = molecular target: 5-HT1A receptors of rat brain (rat) (UniProt P19327); assay: radioligand binding, rat brain membranes, [3H]8-OH-DPAT (3 nM), 1 nM peptide
[23] = molecular target: 5-HT2A receptor of rat brain (rat) (UniProt P14842); assay: radioligand binding, rat brain membranes, [3H]ketanserin (5 nM), 1 nM peptide
[24] = molecular target: 5-HT1B/1D receptors; assay: radioligand binding, rat brain membranes, [3H]5-HT (30 nM) + 0.1 µM 8-OH-DPAT, 1 nM peptide
[25] = molecular target: T3, 5-HT1D receptors in guinea pigs (guinea pig, UniProt Q60484 1-376); assay: inhibition of [3H]5-HT binding to 5-HT1D receptors, guinea pig
T3 construct: Native tissue; preparation not described

[26] = molecular target: α1 adrenergic receptors of rat brain; assay: radioligand binding, rat brain membranes, [3H]prazosin (2 nM), 1 nM peptide
[27] = molecular target: 5-HT1EFC; assay: radioligand binding, rat brain membranes, [3H]5-HT (30 nM) + 20 nM 5-CT, 1 nM peptide
[28] = molecular target: 5-HT3 receptor of rat brain (rat) (UniProt P35563); assay: radioligand binding, rat brain membranes, [3H]BRL 43694 (3 nM), 1 nM peptide
5-HT3 receptor of rat brain (rat), sequence (P35563 24-483): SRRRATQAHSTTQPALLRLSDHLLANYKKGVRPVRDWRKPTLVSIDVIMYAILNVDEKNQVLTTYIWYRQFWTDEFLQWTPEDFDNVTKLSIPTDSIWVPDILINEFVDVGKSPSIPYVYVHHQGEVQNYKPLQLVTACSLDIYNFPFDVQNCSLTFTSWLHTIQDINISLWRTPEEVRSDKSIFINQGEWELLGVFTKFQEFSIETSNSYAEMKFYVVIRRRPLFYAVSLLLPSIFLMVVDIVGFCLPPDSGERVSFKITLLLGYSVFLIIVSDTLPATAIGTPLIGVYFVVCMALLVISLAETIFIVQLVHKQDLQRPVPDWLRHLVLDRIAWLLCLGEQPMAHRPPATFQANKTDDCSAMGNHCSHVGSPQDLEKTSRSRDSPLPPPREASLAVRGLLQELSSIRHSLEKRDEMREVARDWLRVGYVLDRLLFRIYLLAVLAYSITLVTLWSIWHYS

T1 sequence (P28564 whole entry): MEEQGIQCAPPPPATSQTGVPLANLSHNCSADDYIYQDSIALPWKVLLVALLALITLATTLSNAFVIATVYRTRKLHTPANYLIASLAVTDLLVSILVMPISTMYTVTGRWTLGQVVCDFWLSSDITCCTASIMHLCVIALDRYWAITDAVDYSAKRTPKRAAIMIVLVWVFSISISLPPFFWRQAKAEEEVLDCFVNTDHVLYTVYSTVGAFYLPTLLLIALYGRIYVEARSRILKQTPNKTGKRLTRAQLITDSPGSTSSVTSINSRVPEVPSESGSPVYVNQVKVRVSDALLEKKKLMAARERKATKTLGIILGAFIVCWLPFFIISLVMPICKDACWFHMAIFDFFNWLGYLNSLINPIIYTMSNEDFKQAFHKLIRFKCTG
5-HT2A receptor of rat brain (rat), sequence (P14842 whole entry): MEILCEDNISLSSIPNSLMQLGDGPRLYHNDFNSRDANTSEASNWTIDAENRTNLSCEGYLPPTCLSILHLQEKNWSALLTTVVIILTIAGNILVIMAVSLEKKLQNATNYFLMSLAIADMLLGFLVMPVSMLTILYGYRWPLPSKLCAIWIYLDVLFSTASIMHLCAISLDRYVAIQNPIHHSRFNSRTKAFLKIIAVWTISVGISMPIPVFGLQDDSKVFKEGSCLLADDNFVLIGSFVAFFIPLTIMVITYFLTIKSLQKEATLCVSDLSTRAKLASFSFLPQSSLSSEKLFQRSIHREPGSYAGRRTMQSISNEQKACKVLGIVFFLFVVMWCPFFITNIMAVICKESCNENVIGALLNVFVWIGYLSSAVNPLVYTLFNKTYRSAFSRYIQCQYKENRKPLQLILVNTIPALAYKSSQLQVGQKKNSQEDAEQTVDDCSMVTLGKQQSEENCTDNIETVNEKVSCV
T2 sequence (P28221 whole entry): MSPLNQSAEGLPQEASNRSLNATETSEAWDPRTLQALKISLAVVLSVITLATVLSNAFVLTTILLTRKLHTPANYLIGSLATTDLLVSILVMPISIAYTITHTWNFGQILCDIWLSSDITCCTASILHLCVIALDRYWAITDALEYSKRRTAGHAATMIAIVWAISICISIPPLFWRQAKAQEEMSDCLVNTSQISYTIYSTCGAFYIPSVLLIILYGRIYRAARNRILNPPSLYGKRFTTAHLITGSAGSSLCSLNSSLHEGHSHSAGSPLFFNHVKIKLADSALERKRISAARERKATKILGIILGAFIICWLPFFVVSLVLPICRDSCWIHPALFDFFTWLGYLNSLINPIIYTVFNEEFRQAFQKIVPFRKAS
T3 sequence (Q60484 whole entry): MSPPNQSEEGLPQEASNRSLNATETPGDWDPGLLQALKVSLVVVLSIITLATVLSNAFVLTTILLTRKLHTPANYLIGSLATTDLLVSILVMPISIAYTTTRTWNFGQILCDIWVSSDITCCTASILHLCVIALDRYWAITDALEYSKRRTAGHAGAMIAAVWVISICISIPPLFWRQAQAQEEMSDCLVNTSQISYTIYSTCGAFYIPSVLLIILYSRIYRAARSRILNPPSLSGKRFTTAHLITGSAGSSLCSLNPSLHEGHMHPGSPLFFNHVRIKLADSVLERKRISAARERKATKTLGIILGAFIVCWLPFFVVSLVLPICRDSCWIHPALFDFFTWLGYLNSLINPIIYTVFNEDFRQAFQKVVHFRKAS
H1 histaminergic receptor of rat brain (rat), sequence (P31390 whole entry): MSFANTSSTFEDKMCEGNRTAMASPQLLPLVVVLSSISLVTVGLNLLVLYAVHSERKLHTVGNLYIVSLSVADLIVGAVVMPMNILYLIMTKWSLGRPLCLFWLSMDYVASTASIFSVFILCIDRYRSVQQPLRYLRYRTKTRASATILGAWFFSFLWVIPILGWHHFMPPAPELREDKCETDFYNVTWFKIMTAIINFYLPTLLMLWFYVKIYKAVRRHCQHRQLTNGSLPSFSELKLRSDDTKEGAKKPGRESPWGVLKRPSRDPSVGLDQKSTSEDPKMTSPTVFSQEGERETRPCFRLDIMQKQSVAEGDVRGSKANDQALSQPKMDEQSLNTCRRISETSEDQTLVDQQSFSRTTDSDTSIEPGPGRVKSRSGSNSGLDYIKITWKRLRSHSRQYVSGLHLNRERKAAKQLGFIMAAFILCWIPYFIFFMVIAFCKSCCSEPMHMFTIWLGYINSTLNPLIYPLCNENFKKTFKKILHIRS
5-HT1A receptors of rat brain (rat), sequence (P19327 whole entry): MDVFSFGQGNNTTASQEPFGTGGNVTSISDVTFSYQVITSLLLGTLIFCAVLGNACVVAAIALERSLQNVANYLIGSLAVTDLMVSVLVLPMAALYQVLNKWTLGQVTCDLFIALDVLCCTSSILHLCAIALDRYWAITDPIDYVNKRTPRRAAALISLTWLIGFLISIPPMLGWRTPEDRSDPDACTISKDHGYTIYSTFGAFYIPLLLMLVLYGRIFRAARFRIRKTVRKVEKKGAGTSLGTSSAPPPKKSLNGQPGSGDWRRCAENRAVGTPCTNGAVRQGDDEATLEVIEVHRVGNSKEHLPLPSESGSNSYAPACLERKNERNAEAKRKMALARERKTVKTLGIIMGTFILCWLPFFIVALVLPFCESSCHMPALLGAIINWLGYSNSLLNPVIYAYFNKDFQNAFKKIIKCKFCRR
D2 dopaminergic receptor of rat brain (rat), sequence (P61169 whole entry): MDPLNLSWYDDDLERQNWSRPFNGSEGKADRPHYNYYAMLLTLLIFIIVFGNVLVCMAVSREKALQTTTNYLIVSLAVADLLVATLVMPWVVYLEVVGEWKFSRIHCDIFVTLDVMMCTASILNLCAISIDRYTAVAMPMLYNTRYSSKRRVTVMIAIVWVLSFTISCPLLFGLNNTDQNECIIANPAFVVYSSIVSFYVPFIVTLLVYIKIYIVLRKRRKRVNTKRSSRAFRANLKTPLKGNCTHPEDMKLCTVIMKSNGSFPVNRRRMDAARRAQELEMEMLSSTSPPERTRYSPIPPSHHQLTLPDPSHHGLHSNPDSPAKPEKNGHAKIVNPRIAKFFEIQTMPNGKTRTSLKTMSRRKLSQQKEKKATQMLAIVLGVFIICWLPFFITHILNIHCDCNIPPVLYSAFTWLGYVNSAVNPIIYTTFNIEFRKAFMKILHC

Molecule: C[C@H](N)C(=O)O [ALA]
RELATIVE POTENCY, Receptors 5-HT1B/D ([3H]5-HT) [1]: 0 ± 4 percentage of the LSAL effect
RELATIVE POTENCY, Receptors 5-HT1B/D ([125I]-cyanopindolol) [2]: 1.7 ± 1.68 percentage of the LSAL effect

Molecule: CN1Cc2c(N)cccc2C(c2ccccc2)C1 (stereo not shown) [nomifensine]
activity in the forced swimming test compared with the peptide [3]: much more effective than the peptide

Molecule: AC-LEU-SER-ALA-LEU
RELATIVE POTENCY, Receptors 5-HT1B/D ([3H]5-HT) [1]: 26.7 ± 10 percentage of the LSAL effect

Molecule: Ala-Leu-Leu-Ser (ALLS; printed: ALA-LEU-LEU-SER) [comparison peptide]
RELATIVE POTENCY, Receptors 5-HT1B/D ([3H]5-HT) [1]: 10 ± 15 percentage of the LSAL effect
activity on binding to the 5-HT1B/1D type receptors [7]: inactive
RELATIVE POTENCY, Receptors 5-HT1B/D ([125I]-cyanopindolol) [2]: 23.6 ± 10.6 percentage of the LSAL effect

Molecule: Ala-Leu-Leu-Ser (peptide)
relative potency (% of the LSAL effect) (% of the LSAL effect) [6]: 23.6
relative potency (% of the LSAL effect) (% of the LSAL effect) [4]: 10

Molecule: Ala-Leu-Ser (ALS)
RELATIVE POTENCY, Receptors 5-HT1B/D ([3H]5-HT) [1]: 28 ± 10 percentage of the LSAL effect
IC50 [7]: 1000 nM
RELATIVE POTENCY, Receptors 5-HT1B/D ([125I]-cyanopindolol) [2]: 33.8 ± 10 percentage of the LSAL effect

Molecule: LSALGGGY
RELATIVE POTENCY, Receptors 5-HT1B/D ([3H]5-HT) [1]: 80.9 ± 9.5 percentage of the LSAL effect
ligand activity on the 5-HT receptor [8]: still having a substantial activity

Molecule: Leu-Ser-Ala-Leu-NH2
RELATIVE POTENCY, Receptors 5-HT1B/D ([3H]5-HT) [1]: 83.3 ± 16 percentage of the LSAL effect

Molecule: LSAL (also called LSAL; the peptide) [Leu-Ser-Ala-Leu]
IC50 [9]: 0.01 nM
inhibitory effect as % of the control (% of the control) [10]: 0
inhibitory effect as % of the control (% of the control) [11]: 2
inhibitory effect as % of the control (% of the control) [12]: 2
inhibitory effect as % of the control (% of the control) [13]: 10
inhibitory effect as % of the control (% of the control) [14]: 2
IC50 [15]: 0.01 nM
IC50 [16]: 0.01 nM
inhibitory effect as % of the control (% of the control) [17]: 10
maximum inhibitory effect [18]: 30 to 50%
IC50 [19]: 0.01 nM
inhibitory effect as % of the control (% of the control) [20]: 10
K+-induced liberation of [3H]5-HT from rat brain hippocampus synaptosomes, apparent IC50 [21]: 0.01 nM
relative potency (% of the LSAL effect) (% of the LSAL effect) [4]: 100
inhibitory effect as % of the control (% of the control) [22]: 0
inhibitory effect as % of the control (% of the control) [23]: 10
inhibitory effect as % of the control (% of the control) [24]: 75
IC50 [25]: 0.01 nM
inhibitory effect as % of the control (% of the control) [26]: 5
inhibitory effect as % of the control (% of the control) [27]: 0
inhibitory effect as % of the control (% of the control) [28]: 0

More lines, now with the values ahead:

RELATIVE POTENCY, Receptors 5-HT1B/D ([3H]5-HT) [1]: 2 ± 9 percentage of the LSAL effect
RELATIVE POTENCY, Receptors 5-HT1B/D ([125I]-cyanopindolol) [2]: 0 ± 2 percentage of the LSAL effect
Molecule: CC(C)C[C@H](N)C(=O)O [LEU]

RELATIVE POTENCY, Receptors 5-HT1B/D ([3H]5-HT) [1]: 0 ± 5 percentage of the LSAL effect
RELATIVE POTENCY, Receptors 5-HT1B/D ([125I]-cyanopindolol) [2]: 0 ± 1.7 percentage of the LSAL effect
Molecule: N[C@@H](CO)C(=O)O [SER]

relative potency (% of the LSAL effect) (% of the LSAL effect) [4]: 26.7
Molecule: AC-LEU-SER-ALA-LEU (peptide)

IC50 [5]: 1000 nM
relative potency (% of the LSAL effect) (% of the LSAL effect) [6]: 61.5
relative potency (% of the LSAL effect) (% of the LSAL effect) [4]: 50
Molecule: Ala-Leu (peptide)

IC50 [5]: 1000 nM
relative potency (% of the LSAL effect) (% of the LSAL effect) [6]: 33.8
relative potency (% of the LSAL effect) (% of the LSAL effect) [4]: 28
Molecule: Ala-Leu-Ser (peptide)

relative potency (% of the LSAL effect) (% of the LSAL effect) [4]: 0
Molecule: D-ALA-LEU (peptide)

relative potency (% of the LSAL effect) (% of the LSAL effect) [6]: 1.7
relative potency (% of the LSAL effect) (% of the LSAL effect) [4]: 1
Molecule: LEU-ALA (peptide)

relative potency (% of the LSAL effect) (% of the LSAL effect) [4]: 83.3
Molecule: LEU-SER-ALA-LEU-NH2 (peptide)

IC50 [5]: 10000 nM
relative potency (% of the LSAL effect) (% of the LSAL effect) [6]: 53.8
relative potency (% of the LSAL effect) (% of the LSAL effect) [4]: 45.7
Molecule: Leu-Ser (peptide)

relative potency (% of the LSAL effect) (% of the LSAL effect) [4]: 4
Molecule: SER-LEU (peptide)

relative potency (% of the LSAL effect) (% of the LSAL effect) [4]: 2
Molecule: β-ALA-DL-LEU (peptide)

relative potency (% of the LSAL effect) (% of the LSAL effect) [4]: 0
Molecule: β-ALA-LEU (peptide)

relative potency (% of the LSAL effect) (% of the LSAL effect) [4]: 80.9
Molecule: LSALGGGY [Leu-Ser-Ala-Leu-Gly-Gly-Gly-Tyr]
